The chains are these.
B1: CPEB3 Ribozyme (parent)
chain: GGGGGCCACAGCAGAAGCGUUCACGUCGCGGCCCCUGUCAGAUUCUGGUGAAUCUGCGAAUUCUGCUGU

The values that follow come from the RNAGym collection of RNA variant scans (doi:10.7554/elife.80360).

Variants of B1 are the subject of the series. The series can be described thus: self-cleavage, relative activity (ratio to wild type); higher = more cleavage; co-transcriptional.
Turning to A13U C32A, the self-cleavage stood at 0.542.
As to A13U C45A, the self-cleavage was 0.764.
With A13U C45G, the self-cleavage came out at 0.814.
Take A13G G28U: the self-cleavage amounted to 0.15.
As to A13G G28C, the self-cleavage was 0.18.
Then A13G U67C, with 0.94.
A13G U67A: the self-cleavage was found to be 0.889.
Take G14A C34A: the self-cleavage amounted to 0.419.
Turning to G14A C34G, the self-cleavage is 0.23.
As for A13C G65C, the self-cleavage came out at 0.278.
In the case of A13C G65A, the self-cleavage was 0.431.
With G14A C27U, the self-cleavage is 0.134.
Then G14A C27A, with 0.14; and G14A A51U, with 0.75.
For G14A A51C, the self-cleavage is 0.486.
On to A13U U69A, for which the self-cleavage worked out at 0.89.
Consider A13U U69C, for which the self-cleavage was determined as 1.
As to A13U U69G, the self-cleavage stood at 0.961.
As for A13G U62G, the self-cleavage is 0.445.
Take A13G U62A: the self-cleavage is 0.622.
A13G U62C: the self-cleavage is 0.449.
For the variant A13G C57G, the self-cleavage is 0.36.
For A13G C57U, the self-cleavage stood at 0.358.
With A13G U61G, the self-cleavage is 0.53.
In the case of A13G U61C, the self-cleavage was 0.402.
Consider A13U C39G, for which the self-cleavage is 0.508.
Consider A13U C39A, for which the self-cleavage is 0.394.
A13U U38A: the self-cleavage stood at 0.609.
Take A13U U38C: the self-cleavage was found to be 0.704.
Then A13U U38G, with 0.198; and A13G U38C, with 0.938; and A13G U38G, with 0.149.
A13G U38A: the self-cleavage was 0.898.
Consider A13U U61C, for which the self-cleavage turned out to be 0.32.
For A13U U61A, the self-cleavage amounted to 0.456.
For A13U U61G, the self-cleavage worked out at 0.46.
Then A13G U36C, with 0.816; and A13G U36A, with 0.222; and A13C U21C, with 0.496.
As to A13C U21A, the self-cleavage came to 0.772.
For the variant A13C U21G, the self-cleavage worked out at 0.135.
For G14A A42C, the self-cleavage came to 0.343.
Take A13G C22G: the self-cleavage was found to be 0.199.
Take G14A C33A: the self-cleavage is 0.519.
The result for A13U U67C reads 0.66; that for A13U U67A, 0.629.
Take A13G A59U: the self-cleavage worked out at 0.57.
On to A13G A59G, for which the self-cleavage was determined as 0.946.
For A13G A59C, the self-cleavage was 0.522.
Regarding G14A G47U, the self-cleavage turned out to be 0.889.
On to G14A G47C, for which the self-cleavage came to 0.827.
The result for G14A A40G reads 0.495; that for G14A A40C, 0.234.
The result for A13C U67G reads 0.824.
With A13G U64G, the self-cleavage was found to be 0.745.
A13G U64A: the self-cleavage stood at 0.843.
As for A13G U64C, the self-cleavage came out at 1.
On to G14A A60C, for which the self-cleavage came to 0.28.
Then G14A A60U, with 0.23.
Then G14A A60G, with 0.358; and G14A A23G, with 0.444.
For G14A A23C, the self-cleavage is 0.582.
Then A13C U46C, with 0.761.
The result for A13G U21A reads 0.966.
Regarding A13G U21G, the self-cleavage is 0.355.
Then A13G U21C, with 0.74; and A13U C29G, with 0.0771.
For the variant A13U C29U, the self-cleavage was 0.138.
For A13U C29A, the self-cleavage came out at 0.178.
In the case of A13G G50U, the self-cleavage was 0.973.
As for A13G G50C, the self-cleavage was 0.881.
A13G G50A: the self-cleavage came out at 0.896.
With A13G C32U, the self-cleavage was determined as 0.916.
Turning to A13G C32G, the self-cleavage was 0.318.
As to A13G C32A, the self-cleavage was 0.773.
In the case of A13U C63A, the self-cleavage was found to be 0.317.
As for A13U C63G, the self-cleavage came out at 0.294.
On to G14A G37A, for which the self-cleavage stood at 0.191.
With A13G G14A, the self-cleavage is 0.276.
Regarding A13G G14C, the self-cleavage is 0.255.
With A13G G14U, the self-cleavage was 0.146.
The result for A13U A15G reads 0.79; that for A13U A15C, 0.354; that for A13U A15U, 0.56.
Then G14A G17U, with 0.111; and A13G G68A, with 1.01; and G14A G56A, with 0.466.
For A13G A42U, the self-cleavage stood at 0.74.
As for G14A C29U, the self-cleavage was 0.113.
As for G14A C22G, the self-cleavage was determined as 0.166.
With A13G C63G, the self-cleavage was 0.504.
With A13G C63A, the self-cleavage amounted to 0.26.
On to A13G C63U, for which the self-cleavage is 0.842.
Consider A13C U61C, for which the self-cleavage is 0.281.
For G14A C32G, the self-cleavage came to 0.212.
Then G14A C32A, with 0.336.
With G14A C18U, the self-cleavage turned out to be 0.179.
For G14A C18A, the self-cleavage turned out to be 0.163.
On to G14A C18G, for which the self-cleavage was 0.208.
On to G14A C39U, for which the self-cleavage was 0.362.
In the case of G14A C39A, the self-cleavage was determined as 0.22.
Regarding G14A C39G, the self-cleavage is 0.385.
Then G14A C35U, with 0.668; and A13C U36C, with 0.62.
Then G14A C24U, with 0.2; and G14A C24A, with 0.238; and A13U C18G, with 0.119.
Regarding A13U C18U, the self-cleavage was 0.19.
The result for A13C U53A reads 0.579.
The result for A13G G41A reads 0.448; that for A13G U49A, 0.95; that for G14A C54A, 0.239.
Turning to A13G G47A, the self-cleavage was determined as 0.994.
The result for A13G G47U reads 1.06; that for A13U A16U, 0.34; that for A13U A16G, 0.589.
A13U A16C: the self-cleavage was found to be 0.14.
On to G14A G48U, for which the self-cleavage is 0.943.
On to G14A G48A, for which the self-cleavage was found to be 0.868.
Turning to G14A G48C, the self-cleavage came out at 0.836.
In the case of G14A C63A, the self-cleavage stood at 0.829.
Then A13G G56U, with 0.742.
Turning to A13G G56A, the self-cleavage stood at 0.934.
As for A13G G56C, the self-cleavage amounted to 0.421.
For A13U G14U, the self-cleavage amounted to 0.437.
For the variant A13U G14A, the self-cleavage was determined as 0.328.
For A13C U44A, the self-cleavage came out at 0.7.
With A13C U44C, the self-cleavage worked out at 0.51.
As for A13C U44G, the self-cleavage came to 0.802.
A13G C39U: the self-cleavage amounted to 0.8.
As for A13G C39G, the self-cleavage was 0.758.
For the variant A13U G50A, the self-cleavage was determined as 0.776.
A13U G50U: the self-cleavage is 0.857.
For the variant A13U G50C, the self-cleavage was 0.756.
The result for G14A C66G reads 0.287; that for G14A C66U, 0.375; that for G14A C66A, 0.262.
As to A13G U55G, the self-cleavage is 0.51.
For A13G U55C, the self-cleavage amounted to 0.621.
Then A13G A51C, with 0.874.
The result for A13G U46G reads 0.979.
As for A13G U46A, the self-cleavage came out at 1.02.
As to G14A G25A, the self-cleavage was determined as 0.156.
On to G14A G25C, for which the self-cleavage was found to be 0.105.
Regarding G14A G25U, the self-cleavage is 0.0915.
For the variant G14A G19C, the self-cleavage turned out to be 0.106.
The result for G14A G19A reads 0.16; that for A13G G58A, 0.902.
With A13G G58U, the self-cleavage worked out at 1.01.
Consider A13G G58C, for which the self-cleavage came to 0.878.
For A13G C18A, the self-cleavage worked out at 0.0625.
As for A13G C18G, the self-cleavage amounted to 0.169.
As to A13G C27U, the self-cleavage amounted to 0.168.
Regarding G14A C57A, the self-cleavage worked out at 0.264.
Turning to G14A C57G, the self-cleavage turned out to be 0.258.
The result for A13U G41A reads 0.263; that for A13U G41C, 0.247; that for A13C U62G, 0.355.
The result for A13U A42G reads 0.645.
With A13U A42U, the self-cleavage was 0.494.
Then A13G U44G, with 0.826; and A13U C35G, with 0.258; and A13G A15C, with 0.196.
As to A13G A15G, the self-cleavage was found to be 0.82.
For the variant A13G G37C, the self-cleavage came out at 0.109.
Consider A13G G37U, for which the self-cleavage turned out to be 0.184.
Consider A13G G37A, for which the self-cleavage came to 0.172.
